B1: LINE1-full (parent)
chain: UACGUAGGUGGUUUUCCCCUGAUAGUGCUAAGGGGGCCUGGAAGUUUGGACUGGGCAGAGCUCAACACAGCGUGGCAAAGUGGCUGUGGCUAGACUGCCUCUCUGGAUUCCUCGUCACUCAGCAGGGCAUCUCUGAGAGAAAUGCC

Variants of B1 are the subject of this data set. The experiment in a line: self-cleavage, relative activity (ratio to wild type); higher = more cleavage; in vitro, sequencing; the parent is a self-cleaving ribozyme.
For the variant UACGUAGGUGGUUUUCCCCUGAUGGUGCUAAGGGGGCCCGGAAGUUUGGACUGGGCAGAGCUCAACACAGCGUGGCAAAGUGGCUGUGGCUAGACUGCCUCUCUGGAUUCCUCGUCACUCAGCAGGGCAUCUCUGAGAGAAAUGCC [A24G U39C], the self-cleavage came out at 1.11. Consider UACGUAGGUGGUUUUCCCCUGAUGGUGCUAAGGGGGCCGGGAAGUUUGGACUGGGCAGAGCUCAACACAGCGUGGCAAAGUGGCUGUGGCUAGACUGCCUCUCUGGAUUCCUCGUCACUCAGCAGGGCAUCUCUGAGAGAAAUGCC [A24G U39G], for which the self-cleavage worked out at 0.76. On to UACGUAGGUGGUUUUCCCCUGAUGGUGCUAAGAGGGCCUGGAAGUUUGGACUGGGCAGAGCUCAACACAGCGUGGCAAAGUGGCUGUGGCUAGACUGCCUCUCUGGAUUCCUCGUCACUCAGCAGGGCAUCUCUGAGAGAAAUGCC [A24G G33A], for which the self-cleavage is 0.35. For UACGUAGGUGGUUUUCCCCUGAUGGUGCUAAGGGGGCCUGGAAGUAUGGACUGGGCAGAGCUCAACACAGCGUGGCAAAGUGGCUGUGGCUAGACUGCCUCUCUGGAUUCCUCGUCACUCAGCAGGGCAUCUCUGAGAGAAAUGCC [A24G U46A], the self-cleavage was determined as 0.9.

With UACGUAGGUGGUUUUCCCCUGAUGGUGCUAAGGGGGCCUGGAAGUUUGGACUGGGCAGAGCUCAACACAGCGUGGCAAAGUGGCUGUGGCUAGACAGCCUCUCUGGAUUCCUCGUCACUCAGCAGGGCAUCUCUGAGAGAAAUGCC [A24G U96A], the self-cleavage turned out to be 0.11.

Consider UACGUAGGUGGUUUUCCCCUGAUGGUGCUAAGGGGGCCUGGAAGUUUGGACUGGGCAGAGCUCAACACAGCGUGGCAAAGUGGCUGUGGCUAGACGGCCUCUCUGGAUUCCUCGUCACUCAGCAGGGCAUCUCUGAGAGAAAUGCC [A24G U96G], for which the self-cleavage was found to be 0.

As to UACGUAGGUGGUUUUCCCCUGAUGGUGCUAAGGGGGCCUGGAAGUUUGGACUGGGCAGAGCUCAACACAGCGUGGCAAAGUGGCUGUGGCUAGACCGCCUCUCUGGAUUCCUCGUCACUCAGCAGGGCAUCUCUGAGAGAAAUGCC [A24G U96C], the self-cleavage was 0.31. Turning to UACGUAGGUGGUUUUCCCCUGAUGGUGCUAAGGGGGCCUGGAAGUUUGGACUGGGCAGAGCUCAACACAGCGUGGCAAAGUGGCUGUGGCUAGACUGCCUCUCUGGAUUCCUCGUCACUCAGCAGGGCAUCUCUGAGAGAGAUGCC [A24G A141G], the self-cleavage stood at 1.22. In the case of UACGUAGGUGGUUUUCCCCUGAUGGUGCUAAGGGGGCCUGGAAGUUUGGACUGGGCAGAGCUCAACACAGCGUGGCAAAGUGGCUGUGGCUAGACUGCCUCUCUGGAUUCCUCGUCACUCAGCAGGGCAUCUCUGAGAGAAAUGCU [A24G C146U], the self-cleavage is 1.61. On to UACGUAGGUGGUUUUCCCCUGAUGGUGCUAAGGGGGCCUGGAAGUUUGGACUGGGCAGAGCUCAACACAGCGUGGCAAAGUGGCUGUGGCUAGACUGCCUCUCUGGAUUCAUCGUCACUCAGCAGGGCAUCUCUGAGAGAAAUGCC [A24G C111A], for which the self-cleavage is 1.74. As for UACGUAGGUGGUUUUCCCCUGAUGGUGCUAAAGGGGCCUGGAAGUUUGGACUGGGCAGAGCUCAACACAGCGUGGCAAAGUGGCUGUGGCUAGACUGCCUCUCUGGAUUCCUCGUCACUCAGCAGGGCAUCUCUGAGAGAAAUGCC [A24G G32A], the self-cleavage amounted to 1.13.

Regarding UACGUAGGUGGUUUUCCCCUGAUGGUGCUAAGGGGGCCUGGAAGUUUGGACUGGGCAGAGCUCAACACAGCGUGGCAAAGUGGCUGUGGCUAGACUGCCUCUCUGGAUACCUCGUCACUCAGCAGGGCAUCUCUGAGAGAAAUGCC [A24G U109A], the self-cleavage was determined as 2.43.

Regarding UACGUAGGUGGUUUUCCCCUGAUGGUGCUAAGGGGGCCUGGAAGUUUGGACUGGGCAGAGCUCAACACAGCGUGGCAAAGUGGCUGUGGCUAGACUGCCUCUCUGGAUUCCUCCUCACUCAGCAGGGCAUCUCUGAGAGAAAUGCC [A24G G114C], the self-cleavage came to 1.7. On to UACGUAGGUGGUUUUCCCCUGAUGGUGCUAAGGGGGCCUGGAAGUUUGGACUGGACAGAGCUCAACACAGCGUGGCAAAGUGGCUGUGGCUAGACUGCCUCUCUGGAUUCCUCGUCACUCAGCAGGGCAUCUCUGAGAGAAAUGCC [A24G G55A], for which the self-cleavage was determined as 0.3. The figure for UACGUAGGUGGUUUUCCCCUGAUGGUGCUAAGGGGGCCUGGAAGUUUGGACUGGUCAGAGCUCAACACAGCGUGGCAAAGUGGCUGUGGCUAGACUGCCUCUCUGGAUUCCUCGUCACUCAGCAGGGCAUCUCUGAGAGAAAUGCC [A24G G55U] is 0.26; for UACGUAGGUGGUUUUCCCCUGAUGGUGCUAAGGGGGCCUGGAAGUUUGGACCGGGCAGAGCUCAACACAGCGUGGCAAAGUGGCUGUGGCUAGACUGCCUCUCUGGAUUCCUCGUCACUCAGCAGGGCAUCUCUGAGAGAAAUGCC [A24G U52C] it is 0.12; for UACGUAGGUGGUUUUCCCCUGAUGGUGCUAAGGGGGCCUGGAAGUUUGGACUGCGCAGAGCUCAACACAGCGUGGCAAAGUGGCUGUGGCUAGACUGCCUCUCUGGAUUCCUCGUCACUCAGCAGGGCAUCUCUGAGAGAAAUGCC [A24G G54C] it is 0.72. UACGUAGGUGGUUUUCCCCUGAUGGUGCUAAGGGGGCCUGGAAGUUUGGACUGAGCAGAGCUCAACACAGCGUGGCAAAGUGGCUGUGGCUAGACUGCCUCUCUGGAUUCCUCGUCACUCAGCAGGGCAUCUCUGAGAGAAAUGCC [A24G G54A]: the self-cleavage is 0.67. Consider UACGUAGGUGGUUUUCCCCUGAUGGUGCUAAGGGGGCCUGGAAGUUUGGACUGUGCAGAGCUCAACACAGCGUGGCAAAGUGGCUGUGGCUAGACUGCCUCUCUGGAUUCCUCGUCACUCAGCAGGGCAUCUCUGAGAGAAAUGCC [A24G G54U], for which the self-cleavage is 0.68. UACGUAGGUGGUUUUCCCCUGAUGGUGCUAAGGGGGCCUGGAAGUUUGGAUUGGGCAGAGCUCAACACAGCGUGGCAAAGUGGCUGUGGCUAGACUGCCUCUCUGGAUUCCUCGUCACUCAGCAGGGCAUCUCUGAGAGAAAUGCC [A24G C51U]: the self-cleavage is 1.68. The result for UACGUAGGUGGUUUUCCCCUGAUGGAGCUAAGGGGGCCUGGAAGUUUGGACUGGGCAGAGCUCAACACAGCGUGGCAAAGUGGCUGUGGCUAGACUGCCUCUCUGGAUUCCUCGUCACUCAGCAGGGCAUCUCUGAGAGAAAUGCC [A24G U26A] reads 0.84; that for UACGUAGGUGGUUUUCCCCUGAUGGUGCUAAGGGGGCCUGGAAGUUUGGACUGGGCAGAGCUAAACACAGCGUGGCAAAGUGGCUGUGGCUAGACUGCCUCUCUGGAUUCCUCGUCACUCAGCAGGGCAUCUCUGAGAGAAAUGCC [A24G C63A], 0. For UACGUAGGUGGUUUUCCCCUGAUGGUGCUAAGGGGGCCUGGAAGUUUGGACUGGGCAGAGCUCAACACAGCGUAGCAAAGUGGCUGUGGCUAGACUGCCUCUCUGGAUUCCUCGUCACUCAGCAGGGCAUCUCUGAGAGAAAUGCC [A24G G74A], the self-cleavage stood at 0.93. Turning to UACGUAGGUGGUUUUCCCCUGAUGGUGCUAAGGGGGCCUGGAAGUUUGGACUGGGCAGAGCUCAACACAGCGUGGCAAAGUGGCUGAGGCUAGACUGCCUCUCUGGAUUCCUCGUCACUCAGCAGGGCAUCUCUGAGAGAAAUGCC [A24G U87A], the self-cleavage was 0.03. The result for UACGUAGGUGGUUUUCCCCUGAUGGUGCUAAGGGGGCCUGGAAGUUUGGACUAGGCAGAGCUCAACACAGCGUGGCAAAGUGGCUGUGGCUAGACUGCCUCUCUGGAUUCCUCGUCACUCAGCAGGGCAUCUCUGAGAGAAAUGCC [A24G G53A] reads 1.8; that for UACGUAGGUGGUUUUCCCCUGAUGGUGCUAAGGGGGCCUGGAAGUUUGGACUGGGCAGAGCUCAACACAGCGUGGCAAAGUGGCUGUGGCUAGACUGCCUCUCUGGAUUCCUCGUCACUCAGCAGGGCAUCUCUGAGAGUAAUGCC [A24G A140U], 0.9; that for UACGUAGGUGGUUUUCCCCUGAUGGUGCUAAGGGGGCCUGGAAGUUUGGACUGGGCAGAGCUCAACACAGCGUGGCAAAGUGGCUGUGGCUAGACUGCCUCUCUGGAUUCCUCGUCACUCAGCAGGGCAUCUCUGAGAGGAAUGCC [A24G A140G], 1.68. Turning to UACGUAGGUGGUUUUCCCCUGAUGGUGCUAAGGGGGCCUGGAAGUUUGGACUGGGCAGAGCUCAACACAGUGUGGCAAAGUGGCUGUGGCUAGACUGCCUCUCUGGAUUCCUCGUCACUCAGCAGGGCAUCUCUGAGAGAAAUGCC [A24G C71U], the self-cleavage is 1.03. In the case of UACGUAGGUGGUUUUCCCCUGAUGGUGCUAAGGGGGCCUGGAAGUUUGGACUGGGCAGAGCUCAACACAGCGUGGCAAAGUGGCUGUGGCUAGACUGCCUCUCUGAAUUCCUCGUCACUCAGCAGGGCAUCUCUGAGAGAAAUGCC [A24G G106A], the self-cleavage was found to be 0.78.

Regarding UACGUAGGUGGUUUUCCCCUGAUGGUGCUAAGGGGGUCUGGAAGUUUGGACUGGGCAGAGCUCAACACAGCGUGGCAAAGUGGCUGUGGCUAGACUGCCUCUCUGGAUUCCUCGUCACUCAGCAGGGCAUCUCUGAGAGAAAUGCC [A24G C37U], the self-cleavage was found to be 0.83. The figure for UACGUAGGUGGUUUUCCCCUGAUGGUGCUAAGGGGGACUGGAAGUUUGGACUGGGCAGAGCUCAACACAGCGUGGCAAAGUGGCUGUGGCUAGACUGCCUCUCUGGAUUCCUCGUCACUCAGCAGGGCAUCUCUGAGAGAAAUGCC [A24G C37A] is 1.07. Take UACGUAGGUGGUUUUCCCCUGAUGGUGCUAAGGGGGCCUGGAAGUUUGGACUGGGCAGAGCUCAACACAGCGUGGCAAAGUGGCUGUGGCUAGACUGCCUCUCUGGAUUCCUCGUCACUCAGCAGGGCAUCACUGAGAGAAAUGCC [A24G U132A]: the self-cleavage amounted to 1.12. Take UACGUAGGUGGUUUUCCCCUGAUGGUGCUAAGGGGGCCUGGAAGUUUGGACUGGGCAGAGCUCAACACAGCGUGGCAAAGUGGCUGUGGCUAGACUGCCUCUCUGGAUUCCUCGUCACUCAGCAGGGCAUUUCUGAGAGAAAUGCC [A24G C131U]: the self-cleavage was 1.59.

On to UACGUAGGUGGUUUUCCCCUGAUGGUGCCAAGGGGGCCUGGAAGUUUGGACUGGGCAGAGCUCAACACAGCGUGGCAAAGUGGCUGUGGCUAGACUGCCUCUCUGGAUUCCUCGUCACUCAGCAGGGCAUCUCUGAGAGAAAUGCC [A24G U29C], for which the self-cleavage was 1.41. For the variant UACGUAGGUGGUUUUCCCCUGAUGGUGCUAAGGGGGCCUGGAAGUUUGGACUGGGCAGAGCUCAACACAGCGUGGCAAAGUGGCUGUGGCUAGACUGACUCUCUGGAUUCCUCGUCACUCAGCAGGGCAUCUCUGAGAGAAAUGCC [A24G C98A], the self-cleavage was 0.13. For the variant UACGUAGGUGGUUUUCCCCUGAUGGUGCUAAGGGGGCCUGGAAGUUAGGACUGGGCAGAGCUCAACACAGCGUGGCAAAGUGGCUGUGGCUAGACUGCCUCUCUGGAUUCCUCGUCACUCAGCAGGGCAUCUCUGAGAGAAAUGCC [A24G U47A], the self-cleavage stood at 1.44. Turning to UACGUAGGUGGUUUUCCCCUGAUGGUGCUAAGGGUGCCUGGAAGUUUGGACUGGGCAGAGCUCAACACAGCGUGGCAAAGUGGCUGUGGCUAGACUGCCUCUCUGGAUUCCUCGUCACUCAGCAGGGCAUCUCUGAGAGAAAUGCC [A24G G35U], the self-cleavage was 1.15. On to UACGUAGGUGGUUUUCCCCUGAUGGUGCUAAGGGGGCCUGGAAGUUUGGACUGGGCAGAGCUCAACACAGCGUGGCAAAGUGGCCGUGGCUAGACUGCCUCUCUGGAUUCCUCGUCACUCAGCAGGGCAUCUCUGAGAGAAAUGCC [A24G U85C], for which the self-cleavage came to 0. On to UACGUAGGUGGUUUUCCCCUGAUGGUGCUAAGGGGGCCUGGAAGUUUGGACUGGGCAGAGCUCAACACAGCGUGGCAAAGUGGCUGUGGCUAGACUGCCUCUCUGGAUUCCUCGUCACUCAGCAGGGCAUCUCUGAGAGAAAUACC [A24G G144A], for which the self-cleavage amounted to 1.35.

The record behind these values is the RNAGym collection of RNA variant scans (doi:10.7554/elife.90254).
